This note sets out measurements from PMC7367201, “G-quadruplexes offer a conserved structural motif for NONO recruitment to NEAT1 architectural lncRNA”.

One data set concerns the target T1, NONO full-length (UniProt Q15233 1-471).
T1 sequence: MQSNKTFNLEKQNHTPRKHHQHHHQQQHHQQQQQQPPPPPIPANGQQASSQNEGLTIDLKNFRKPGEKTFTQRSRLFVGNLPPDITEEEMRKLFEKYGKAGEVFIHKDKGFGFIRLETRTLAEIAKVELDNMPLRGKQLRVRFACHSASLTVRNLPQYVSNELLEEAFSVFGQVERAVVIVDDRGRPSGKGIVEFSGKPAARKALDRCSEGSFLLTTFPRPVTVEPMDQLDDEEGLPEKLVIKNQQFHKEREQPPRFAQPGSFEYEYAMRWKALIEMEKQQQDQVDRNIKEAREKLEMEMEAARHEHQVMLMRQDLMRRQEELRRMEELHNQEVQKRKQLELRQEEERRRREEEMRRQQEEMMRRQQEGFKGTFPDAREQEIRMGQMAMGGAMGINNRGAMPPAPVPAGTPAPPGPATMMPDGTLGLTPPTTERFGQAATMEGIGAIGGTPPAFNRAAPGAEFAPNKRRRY
Description: EMSA; annealed with 100 mM KCl; complex retained in wells; NONO(53-312) EMSA: 20 mM HEPES pH 7.5, 5.7 mM Tris-HCl, 113 mM KCl, 10% glycerol, 62 mM L-proline, 1% EMPIGEN BB, 0.12 mM EDTA, 4 C 1 h, 10 nM RNA; full-length: 20 mM HEPES pH 7.4, 11 mM Tris, 105 mM KCl, 14% glycerol, 40 mM glycine, 0.2 mM EDTA, 0.5 mM DTT, 0.5% BSA, 25 C; pulldown: 10 mM HEPES pH 7.0, 200 mM KCl, 1% Triton X-100, 1 mM MgCl2, 1 mM DTT, 4 C, …. As to conditions: protein: commercial; tags: MYC/DDK; chain copies: 2; label: 3' Cy5; intramolecular G4, annealed with 100 mM KCl.

Data set [1] deals with T2, NONO(53-312) (UniProt Q15233 53-312).
T2 sequence: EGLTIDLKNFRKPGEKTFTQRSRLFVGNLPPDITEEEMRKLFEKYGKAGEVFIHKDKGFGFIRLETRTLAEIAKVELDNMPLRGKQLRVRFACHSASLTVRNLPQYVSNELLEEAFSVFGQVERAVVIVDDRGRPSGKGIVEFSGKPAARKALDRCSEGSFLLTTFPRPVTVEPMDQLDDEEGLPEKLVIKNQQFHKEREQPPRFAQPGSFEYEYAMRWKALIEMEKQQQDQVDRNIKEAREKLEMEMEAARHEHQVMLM
The experiment in a line: EMSA; annealed with 100 mM KCl; NONO(53-312) EMSA: 20 mM HEPES pH 7.5, 5.7 mM Tris-HCl, 113 mM KCl, 10% glycerol, 62 mM L-proline, 1% EMPIGEN BB, 0.12 mM EDTA, 4 C 1 h, 10 nM RNA; full-length: 20 mM HEPES pH 7.4, 11 mM Tris, 105 mM KCl, 14% glycerol, 40 mM glycine, 0.2 mM EDTA, 0.5 mM DTT, 0.5% BSA, 25 C; pulldown: 10 mM HEPES pH 7.0, 200 mM KCl, 1% Triton X-100, 1 mM MgCl2, 1 mM DTT, 4 C, washes to 1.6 M KCl. The following applies: protein: recombinant; tags: His tag removed by TEV; chain copies: 2; label: 3' Cy5; intramolecular G4, annealed with 100 mM KCl. On the technique in general: In EMSA bound probe runs differently from free probe, usually more slowly.

In data set [2] the target is T2, NONO(53-312). The experiment in a line: competition; vs labelled NEAT1_22619 G4, 1-200x excess; NONO(53-312) EMSA: 20 mM HEPES pH 7.5, 5.7 mM Tris-HCl, 113 mM KCl, 10% glycerol, 62 mM L-proline, 1% EMPIGEN BB, 0.12 mM EDTA, 4 C 1 h, 10 nM RNA; full-length: 20 mM HEPES pH 7.4, 11 mM Tris, 105 mM KCl, 14% glycerol, 40 mM glycine, 0.2 mM EDTA, 0.5 mM DTT, 0.5% BSA, 25 C; pulldown: 10 mM HEPES pH 7.0, 200 mM KCl, 1% Triton X-100, 1 mM MgCl2, 1 mM DTT, 4 C, …. As to conditions: protein: recombinant; tags: His tag removed by TEV; chain copies: 2; label: none; intramolecular G4.

Data set [3] concerns the target T2, NONO(53-312). The experiment in a line: competition; vs labelled NEAT1_22619 G4, 1-200x excess; no significant competition; NONO(53-312) EMSA: 20 mM HEPES pH 7.5, 5.7 mM Tris-HCl, 113 mM KCl, 10% glycerol, 62 mM L-proline, 1% EMPIGEN BB, 0.12 mM EDTA, 4 C 1 h, 10 nM RNA; full-length: 20 mM HEPES pH 7.4, 11 mM Tris, 105 mM KCl, 14% glycerol, 40 mM glycine, 0.2 mM EDTA, 0.5 mM DTT, 0.5% BSA, 25 C; pulldown: 10 mM HEPES pH 7.0, 200 mM KCl, 1% Triton X-100, 1 …. The following applies: protein: recombinant; tags: His tag removed by TEV; chain copies: 2; label: none; annealed with 100 mM KCl.

B1: NEAT1_22619 G-quadruplex (structured_RNA)
RNA: GGGAGGGAGGGAGGG
For B1, the binding result with NONO full-length and in the data set with NONO(53-312) [1] was “binds” each time.

B2: (GGGGCC)4 G-quadruplex (structured_RNA)
RNA: GGGGCCGGGGCCGGGGCCGGGGCC
With B2, in the data set with NONO(53-312) [1], the binding result is “binds”.

B3: (GGGGCC)4 G-quadruplex competitor (structured_RNA)
RNA: GGGGCCGGGGCCGGGGCCGGGGCC
For B3, the binding result with NONO(53-312) [2] is “binds”.

B4: NEAT1_22619 G-quadruplex competitor (structured_RNA)
RNA: GGGAGGGAGGGAGGG
On to B4, for which the binding result with NONO(53-312) [2] is listed as “binds”.

B5: 5'-Splice Site RNA (ssRNA)
RNA: AAAAAGGUAAG
With B5, the binding result in the data set with NONO(53-312) [3] is reported as “no binding”.
